Source: publication PMC5150220, “Multivalent contacts of the Hsp70 Ssb contribute to its architecture on ribosomes and nascent chain interaction” (Nature Communications, 2016)
Ends that are not written are not given here.

B1: IAANS-labelled peptide σ32-Q132-Q144-C (peptide)
peptide: QRKLFFNLRKTKQC
modifications: also: IAANS label, position not given here
notes: sigma-32 (heat shock sigma factor RpoH), residues Q132-Q144; The unlabelled peptide was used in 100-fold excess as the chase in the release assay; also called model peptide
B2: APPY peptide (biotinylated) (peptide)
peptide: SALLQSRLLLSAPRRAAATARYC
modifications: also: biotinylated, position not given here
notes: canonic Hsp70 substrate peptide APPY
B3: Ssb1 (wild type, recombinant) (natural protein)
chain: not shown
notes: Hsp70 Ssb1 of Saccharomyces cerevisiae, wild type, expressed as His6-Smt3-Ssb1 and cleaved with Ulp1; The nucleotide state was set by pre-treatment with ATP (SsbATP) or apyrase (SsbADP) in one experiment; also called wt Ssb1; full length Ssb1; source: E. coli BL21(DE3)*/pRARE, purified (Ni-IDA, Ulp1 cleavage, Resource Q anion exchange); not shown: His6, N-terminal, cleaved; Smt3, N-terminal, …

Columns and labels:
Settings in all cases: both partners purified
[1] = biological target: B3; assay: fluorescence polarisation; fluorescence anisotropy; Ssb1 wt or mutant (10 uM in the methods; titrated up to 100 uM in the text) with 1 uM IAANS-labelled peptide in HKM buffer (25 mM HEPES, 150 mM KCl, 5 mM MgCl2, 1 mM DTT, 10% glycerol), 1.5 h at 30 °C
[2] = biological target: T1, Ssb1Δ601–13 (recombinant) (S. cerevisiae, UniProt P11484 1-600); assay: as above
T1 construct: Purified as the wild type ('His6-Smt3-Ssb1 construct (or mutations thereof)'); also called mutant Ssb1; source: E. coli BL21(DE3)*/pRARE, purified (Ni-IDA, Ulp1 cleavage, Resource Q anion exchange); not shown: His6, N-terminal, cleaved; Smt3, N-terminal, cleaved

[3] = biological target: B3; assay: SEC; 2 uM biotinylated peptide incubated 30 min at RT with 4 uM purified Ssb1 in Ssb buffer (30 mM HEPES KOH pH 7.4, 50 mM KAc, 5 mM MgCl2, 1 mM beta-mercaptoethanol), then apyrase for 1 h; Superose 12; fractions dot-blotted, peptide detected with StrepTactin-HRP and Ssb with antibody
[4] = biological target: T1, Ssb1Δ601–13 (recombinant); assay: as above
[5] = biological target: B2; assay: SEC; as a1, but Ssb pre-incubated with apyrase (SsbADP) before the peptide was added, compared with Ssb pre-incubated with ATP (SsbATP) and treated with apyrase after the peptide; shifted APPY signals quantified

T1 sequence (P11484 1-600, stated change not applied): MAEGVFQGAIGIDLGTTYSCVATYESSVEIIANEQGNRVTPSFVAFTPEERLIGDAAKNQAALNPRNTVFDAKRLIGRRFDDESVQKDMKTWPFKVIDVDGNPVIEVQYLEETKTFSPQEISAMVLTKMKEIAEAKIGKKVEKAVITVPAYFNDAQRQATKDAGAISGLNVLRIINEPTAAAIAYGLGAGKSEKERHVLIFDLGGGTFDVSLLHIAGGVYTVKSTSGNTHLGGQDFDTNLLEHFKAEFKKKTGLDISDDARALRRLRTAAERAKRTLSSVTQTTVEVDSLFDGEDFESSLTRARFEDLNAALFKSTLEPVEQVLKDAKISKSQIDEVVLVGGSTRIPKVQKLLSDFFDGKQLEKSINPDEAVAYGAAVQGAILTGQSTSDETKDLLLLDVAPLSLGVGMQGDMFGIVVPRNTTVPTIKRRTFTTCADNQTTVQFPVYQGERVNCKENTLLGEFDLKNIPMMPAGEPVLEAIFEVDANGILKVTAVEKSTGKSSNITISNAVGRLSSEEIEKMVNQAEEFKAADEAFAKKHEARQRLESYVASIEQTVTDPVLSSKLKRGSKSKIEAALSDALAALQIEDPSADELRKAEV

Binder: B1
binding result [1]: binds
binding result [2]: binds

Binder: B2
binding result [3]: binds
binding result [4]: binds

Binder: B3
shifted APPY signal of SsbADP relative to SsbATP [5]: 71%
